Legend:
Assay in all cases: fluorescence polarisation
[1] = molecular target: soluble HLA-A*03:01 class I molecule (fluorescence polarization assay)
[2] = molecular target: soluble HLA-A*11:01 class I molecule (fluorescence polarization assay)
[3] = molecular target: soluble HLA-B*07:02 class I molecule (fluorescence polarization assay)
[4] = molecular target: soluble HLA-A*02:01 class I molecule (fluorescence polarization assay)

IC50 [1]	IC50 [2]	IC50 [3]	IC50 [4]	Binder
3.24 µM	0.566 µM	–	–	VVVGARGVGK [KRAS G12R 7-16 peptide]
0.962 µM	0.225 µM	–	–	ALLAVGATK [gp17-25 peptide, Melanocyte protein PMEL]
5.3 µM	0.634 µM	–	–	VVGARGVGK [KRAS G12R 8-16 peptide]

More lines, now with the values behind:

Binder	IC50 [1]	IC50 [2]	IC50 [3]	IC50 [4]
GAGGVGKSAL [KRAS 10-19 wild-type peptide]	–	–	76.9 µM	–
KLVVVGAGGV [KRAS 5-14 wild-type peptide]	–	–	–	10.9 µM
KLVVVGARGV [KRAS G12R 5-14 peptide]	–	–	–	20.7 µM
